From the nanobody polyreactivity screen of Harvey et al. (2022)

Experiment: yeast display, Sf9 membrane polyspecificity reagent, FACS + sequencing; frameworks hold sequencing errors
In short: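 Genes from sorted yeast were amplified by colony PCR, read by MiSeq 2 × 250 sequencing and filtered on CDR length. These cells carried a synthetic nanobody library in Saccharomyces cerevisiae BJ5465 and were sorted by FACS into low and high (top ~1%) gates on anti-HA and streptavidin fluorescence. Polyreactivity is labelled according to the gate of origin.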
For “QVQLQESGGGLVQAGGSLRVSCAASGYISSWYPRGWYRQAPGKEREFVATISPGATTYYADSVKGRFTISRDYAKNTVYLQMNSLKPEDTAVYYCSAGQENNDFYSYWGQGTQVTVSS”, the “polyreactivity (PSR sort gate)” value was “low polyreactivity”.
For “QVQLVESGGGLVQAGGSLRLSCAASGIIFYHNAMGWYRQAPGKERELVASITEIGGSTYYADSVKGRFTISRDNAKNTVYILMNSLKPEDTAVYYCAAGTLTSFSRYDYWGQGTQVTVSS”, the “polyreactivity (PSR sort gate)” value was “low polyreactivity”.
With “QVQLVESGGGLVQAGGSLRLSCAASGRIFYRYVMGWYRQAPGKERELVAAITSSGGSTYYADSVKGRFTISRDNAKHTVYLQMISLQPEDTAVYYCAADRYTRYRYNYWGQGTQVTVSS” the “polyreactivity (PSR sort gate)” value was “high polyreactivity”.
For “QGQHVESGGGLVQAGGSLRLSCDASGSTIYQYAMGWYRQAPGKESELVAAISGISGSTSYADSVTGRFTISRDNAKNTVYLQMNSLKPEDTAVYDCAKGTAPIPYRGRVGTSKSDYWGQGTQVTVSS”, the “polyreactivity (PSR sort gate)” value was “low polyreactivity”.
For “QVQLVESGGGLVQAGGILRLSCAASGRILVSYAMGWYRQAPGKERELVAAISRSGGSTYYADSVKGRFTISRDNAKNTVYLQMNSLKPEDTAVYYCNVYRFSRYDYWGQGTQVTVSS”, the “polyreactivity (PSR sort gate)” value was “high polyreactivity”.
In the case of “QVQLVESGGGLVQAGGILSLSCAASGIIFYTYAMGWYRQAPGKERELVATISWDVDSTNYADSVKGRFTISRDNAKNTVYLQMNSLKPEDTAVYYCAVDYTFDSYWYWVDYYEYGYWGQGTQVTVTS”, the “polyreactivity (PSR sort gate)” value is reported as “high polyreactivity”.
With “QVQLVESGGGLVQAGGSLRLSCAASGNNFSYNAMGWYRQAPGKERELVAAITTSSGRTYYADSVKGRFTISRDNAKNTVYLQMNSLKPEDTAVYFCNAVQRYQIGYWGQGTQVTVSS” the “polyreactivity (PSR sort gate)” value was “high polyreactivity”.
For “QVQLVESGGGLVQAGGSLRLSCAASGRIFNRNAMGWYRQAPGKERELVASISSGGRTNYADSVTGRFTISRDNAKNTDYLQMNSLKPEDTAVYYCAAKSPRILLDYWGQGTQVTVSS”, the “polyreactivity (PSR sort gate)” value was “low polyreactivity”.
With “QVQLVESGGGLVQAGGSLRLSCAASGSTFAGNEMGWYRQAPGKERELVAAITFSGGRTDYADSVKGRFTISRDNAKNTVYFQINCLKPEDTAVYDCAAPADDTVHYQNYYWGQGTQVSVSS” the “polyreactivity (PSR sort gate)” value was “low polyreactivity”.
For “QVQLVESGGGLVQAGGSLRLSCAASVFIFDTYTMGWYRQAPGKERELVAAITGSGVNTYYADSVKGRFTISRDNAKNTVYLQMNSLKPEDTAVYYCAARRKNRRDYDYYYWGQGTQVTVSS”, the “polyreactivity (PSR sort gate)” value was “high polyreactivity”.
In the case of “QVQLVESGGGLVQAGGSLRLSCAASGRTFVYNAMGWYRQAPGKERELVAAISSDGASTYYADSVKGRFTISRDNAKNTVYLQMNSLKPEDTAVYYCAADFSYYSYEHYYWVQGTQVTVSS”, the “polyreactivity (PSR sort gate)” value is reported as “low polyreactivity”.
With “QVQLVESGGGLVQAGGSLRLSCAASGRIFNWYVMGWYRQAPGKERELVAAINSGGITKYADSVKGRFTISRDNAKNTVYLQMNSLKPEDTAVYYCAAYYRRYDYDYWGQGTQVTVSS” the “polyreactivity (PSR sort gate)” value was “high polyreactivity”.
With “QDQLVESGGGLVQAGGSLRLSCAASGSTFGDYTMGSYRQAPGKEREFVAAITVSVGSTYFADSVKGRFTISRDTAKNTVYLQMNSVKPEDTAFYYCNTDRDPYYHYFDGLYYYWGQGTQVTVSS” the “polyreactivity (PSR sort gate)” value was “low polyreactivity”.
In the case of “QGQLVESGGGLVQAGGSLRLSCAASGRTFYTYAMGWYSPAAGKERELVAAMTRSGGRTYYADSVKVRFTISRDNAKNTVYLQMNSLKPEDTAVYYCGAKTFYWWADYDYWGQGTQVTVSS”, the “polyreactivity (PSR sort gate)” value is reported as “high polyreactivity”.
With “QVQLVESGGGLVQAGGSLRLSCAASGITFGPYAMGWYRQAPGKERELVAAISAGGGSTYYADSVKGRFTISRDNAKNTVYLQMNSLKPEDTAVYYCAAYLLHHYGGPEYYYWGQGTQVTVSS” the “polyreactivity (PSR sort gate)” value was “high polyreactivity”.
In the case of “QVQLVESGGGLVQAGGSLRLSCAASGIIFGYSAMGWYRQAPGKERELVAAITRSGSSTYYADSVKGRFTISRDNAKNTVYLQMNSLKPEDTAVYYCAADNFYQSYGYWGQGTQVTVSS”, the “polyreactivity (PSR sort gate)” value is reported as “low polyreactivity”.
With “QVQLVESGGGLVQAGGSLRLSCAASGRIFKAYAMGWSRQAPGKERELVAAITSTGSTYYADSVKGRFTISRDNAKNTVYLQMNSLKPEDTAVYYCNAVRYLEYDWGQGTQVTVSS” the “polyreactivity (PSR sort gate)” value was “high polyreactivity”.
With “QVQLVESGGGLVQAGGSLRLSCAASGRIFYRNAMGWYRQAPGKERELVAAIRGSGGRTYYADSVKGRFTISRDNAKNTVYLQMNSLKPEDTAVYYCAAYGYYVEHPRGLSGPYDDDYWGQGTQVTVSS” the “polyreactivity (PSR sort gate)” value was “low polyreactivity”.
With “QVQLVDSGGGLVQAGGSLRLSCAASGLIFKLNAMGWYRQAPGKERELVAAIRASTGSTYYADSVKGRFTISRDNAKNTVYLQMNSLKPEDTADYYCAVRLRWYFFLMDYWGQGTQVTVSS” the “polyreactivity (PSR sort gate)” value was “high polyreactivity”.
For “QVQLVESGGGLVQAGGSLRLSCAASGFIFKRYAMGWYRQAPGKERELVAAITSSGGRTYYADSVKGRFTISRDNAKNTVYLQMISLKPEDTAVYYCAKGWSTYYTKMNYWGQGTQVTVSS”, the “polyreactivity (PSR sort gate)” value was “low polyreactivity”.
With “QVQLVESGVGLVQAGGSLRLSCAASGSSFTSNAMGSYRQAPGKEREFVAAISVGGGITYYADSVKGRFTISRDNAKNTVYLQMYSLKPEDTAVYYCAADGEYPHSEDFEYWGQGTQVTVSS” the “polyreactivity (PSR sort gate)” value was “low polyreactivity”.
For “QVQLVESGGGLVQAGGSLRLSCAASGRIFYINDMGCYRQAPGKEREFVASITGSGGRTYYADSVKGRFTISRDNAKNTVYLQMNSLKPEDTAVYYCNADLYVGYLYYLYDYWGQVTQVTVSS”, the “polyreactivity (PSR sort gate)” value was “low polyreactivity”.
With “QVQLVESGGGIVQARGSLRLTSAASGITFQYYTMGWYRQAPGKERELVAGISDSDGDTYYADSVKGRFTISRDNAKKTVFLQMNSLKPEDTALYYCAADGYAYYRATTRFDYWGQGTQVTLSS” the “polyreactivity (PSR sort gate)” value was “high polyreactivity”.
With “QVQLVESGGGLVQAGGSLRLSCAASGSIFPFYAMGWFRQAPGKERELVAAISWSGGSTYYADSVKGRFTISRDNAKNTVYLQMNSLKPEDTAVYYCNRADGYSFSLNRSDYWGQGTQVTVSS” the “polyreactivity (PSR sort gate)” value was “low polyreactivity”.
With “QVQLVESGGGLVQAGGRLRLSCPASGGTFYIYVMGWYRQAPGKESELVAAITSGDSTNYADSVKGRFTISRDNAKNTVYLQMNSLKPEDTAVYYCAVGITQDPLMYYPFFFHYDYWGQGTQVTVSS” the “polyreactivity (PSR sort gate)” value was “low polyreactivity”.
With “QVQLVESGGGLVQAGGSLRLSCAASGLIIRWNAMGWYRQAPAKERELVAAINRGGSTYYADSVKGRFTISRDNAKNTVYLQMTSLKPEDTAVYYCAVGYAHSSNRRYYYKKTHGYWGQGTQVTVSS” the “polyreactivity (PSR sort gate)” value was “low polyreactivity”.
For “QVQLVESGGGLVQAGGSLRLSCAASGRIFDSNDMGWYRQAPGKEREFVAAITSSGGSTYYADSVKGRFTISRDNAKNTVYLQMNSLKPEDTAVYYCAARVYPRPQSYDKRYYWGQGTQVTVSS”, the “polyreactivity (PSR sort gate)” value was “low polyreactivity”.
In the case of “QVQLVESGGGLVQAGGSLRLCCAASGSTFYFYTMGWYRQAPGKERELVAAIRDSGSSTDYADSVKGRFTISRDNAKNTVYLQMNSLKPEATAVYYCAAEYNFPEFPWGGEYDYWGQGTQVTVSS”, the “polyreactivity (PSR sort gate)” value is reported as “low polyreactivity”.
In the case of “QVQLVESGGGLVQAGGSLRLSCAASGSTFAKYAMGWYRQAPGKERELVASIRLSGGSTYYADSVKGRFTISRDNAKNTVYLQMNSLKPEETAVYYCNKQFATFYYCFDYYYWGQGTQVTVSS”, the “polyreactivity (PSR sort gate)” value is reported as “low polyreactivity”.
In the case of “QVQLVESGGGLVQAGGSHRLSCAASGFTFWDYAMGWYRKAPGKEREMVAAITSRGTRTYYADSVKGRFTISRDNAKNTVYLQMNSLKPEDTDVYYCATAIPDPDYIHNYWGQGTQVTVSS”, the “polyreactivity (PSR sort gate)” value is reported as “high polyreactivity”.
In the case of “QVQLVESGGGLVQAGGSLRLSCAASGSIQGYVMGWYRQAPGKERELVAAITNGGSTYYADSVKGRFTISRDNAKNTVYLQMISLKPEDTAVYYCAKRKFRWPYQGSYSYIPFGYWGQGTQVTVSS”, the “polyreactivity (PSR sort gate)” value is reported as “high polyreactivity”.
In the case of “QVQLVESGGGLVQAGGSLRLSCAASGRIFQYNAMGWYRQAPGKERELVAAIRRGGGSTYYADSVKGRFTISRDNAKNTVYLQMNSLKPEDTAVYYCADRRQRVSFYPEYDYWGQGTQVTVSS”, the “polyreactivity (PSR sort gate)” value is reported as “low polyreactivity”.
For “QVQLVESGGGLVQAGGSLRLSCAASGFTFVGNAMGWYRQAPGKARELVAAIRWTDGSTYYADSVKGRFTISRDNAKNTVYLHMNSLKPEDTAVYYCAKDYRDYARAGDYNVKQADDYWGQGTQVTVSS”, the “polyreactivity (PSR sort gate)” value was “low polyreactivity”.
For “QVQLVESGGGLVQAGGSLRLSCAASGYIFPYNAMGWYRQAPGKERELVAAISASGGTTYYADSVKGRFTISRDNAKNTVYLQMNSLKPEDTAVYYCAASFAVTSGHHYEYWGQGTQVTVSS”, the “polyreactivity (PSR sort gate)” value was “high polyreactivity”.
For “QVQLVESGGGLVQAGGSLRLSCAASGFTFEFNVMGWYRQAPGKERELVASIRWGSTSYADSVKGRFTISRDNAKNTVYLQMNSLKPEDTALYDCAAVTYDYWRQGTQVTVSS”, the “polyreactivity (PSR sort gate)” value was “low polyreactivity”.
With “QVQLVESGGGLVQAGGSLRLSCAASGTTLYWNAMGWYRQAPGKERELVAAISRSGGSTYYADSVKGRFTISRDNAKNTVYLQMNSLKPEDTAVYYCAARRYVPHTEYYYWGQGTQVTVSS” the “polyreactivity (PSR sort gate)” value was “low polyreactivity”.
For “QVQLVESGGGLVQAGGRLRLSCAASGRIFAANVMGSYRQAPGKERELVAAISWNGGSTYYADSEKGRFTISRDNAKKSVYLQLNSLKPEDTAVYYCAVRGSYRVWYDYWGQGTQVTVSS”, the “polyreactivity (PSR sort gate)” value was “high polyreactivity”.
In the case of “QVHLVDTGGGLVQARGRLRLSCPASGYNFSYYAMASYRQAPGKERELVATIDWGGGSTYYADSVQGRFTISRDIAKNTVYLQLNSLKPEDTGVYYCAKDYYINNYGYRYVSWGKGTQVTVSS”, the “polyreactivity (PSR sort gate)” value is reported as “low polyreactivity”.
In the case of “QVQLVESGGGLVQAGGSLRLSCAASGFIFGSYAMGWYRQAPGKERELVAAITSGTTTYYADSVKGRFTISRDNAKNTVYLQMNSLKPEDTAVYYCAATLIYHYWQLFIISTMGYWGQGTQVTVSS”, the “polyreactivity (PSR sort gate)” value is reported as “low polyreactivity”.
In the case of “QVQLVESGGGLVQAGGSLRLSCAASGSIFLENTMGWYRQAPGKERELVAAITSSGDSTYADSVKGRFTISRDNAKNTVYLQMNSLKPEDTAVYYCAQYTRDIFAVTFYEGEDYWGQGTQVTVSS”, the “polyreactivity (PSR sort gate)” value is reported as “low polyreactivity”.
With “QVQLVESGGGLVQAGGSLRLSCAASGSIFGYYAMGWYRQAPGKERELVAAITTRGGRTYYADSVKGRFTISRDNAKNTVYLQMNSLKPEDTAVYYCAARTGRGRYDYWGQGTQVTVSS” the “polyreactivity (PSR sort gate)” value was “high polyreactivity”.
In the case of “QVQLVEAGGGLGQAGGSLRLSCAASGFTFYRYARGWYRQAPGKERELVAAISSSGGRTYYADSVKGRFTISRDTAKNTVYLQMNSLKPEDTAVYYCNVVRLQSYYGPFDYWGQGTQVTVSS”, the “polyreactivity (PSR sort gate)” value is reported as “high polyreactivity”.
With “QVQLVESGGGLVHAGGSLRLSCAASGLTFVDNAMGWYRQAPGKERELVAAITKRGGRTYYADSVKGRFTISRDNAKNTVYSQMNSLKPEDTAVYYCAREAGNDSSRRLDYWGQGTQVTVSS” the “polyreactivity (PSR sort gate)” value was “low polyreactivity”.
